# Laboratory results published in patent US20190275087A1, “EXPANSION AND DIFFERENTIATION OF STEM CELLS” (Allergan Pharmaceuticals International Limited, priority 2018, published 2019).
# B1: recombinant human tropoelastin (Elastagen) (ligand, UniProt P15502-2 27-724, looked up)
# chain: GGVPGAIPGGVPGGVFYPGAGLGALGGGALGPGGKPLKPVPGGLAGAGLGAGLGAFPAVTFPGALVPGGVADAAAAYKAAKAGAGLGGVPGVGGLGVSAGAVVPQPGAGVKPGKVPGVGLPGVYPGGVLPGARFPGVGVLPGVPTGAGVKPKAPGVGGAFAGIPGVGPFGGPQPGVPLGYPIKAPKLPGGYGLPYTTGKLPYGYGPGGVAGAAGKAGYPTGTGVGPQAAAAAAAKAAAKFGAGAAGVLPGVGGAGVPGVPGAIPGIGGIAGVGTPAAAAAAAAAAKAAKYGAAAGLVPGGPGFGPGVVGVPGAGVPGVGVPGAGIPVVPGAGIPGAAVPGVVSPEAAAKAAAKAAKYGARPGVGVGGIPTYGVGAGGFPGFGVGVGGIPGVAGVPGVGGVPGVGGVPGVGISPEAQAAAAAKAAKYGVGTPAAAAAKAAAKAAQFGLVPGVGVAPGVGVAPGVGVAPGVGLAPGVGVAPGVGVAPGVGVAPGIGPGGVAAAAKSAAKVAAKAQLRAAAGLGAGIPGLGVGVGVPGLGVGAGVPGLGVGAGVPGFGAVPGALAAAKAAKYGAAVPGVLGGLGALGGVGIPGGVVGAGPAAAAAAAKAAAKAAQFGLVGAAGLGGLGVGGLGVPGVGGLGGIPPAAAAKAAKYGAAGLGGVLGGAGQFPLGGVAARPGFGLSPIFPGGACLGKACGRKRK
# How the values were obtained:
# [1] = test system: MSCs; assay: MSC adipogenic differentiation (intracellular lipid, Oil Red O); type: cell-based, Human
# Description: (§1) MSCs were grown in various media formulations and on bare or protein-coated tissue culture wells for 7 days. The expanded cells were harvested, re-seeded on TCP, and differentiated into the adipogenic, osteogenic and chondrogenic lineages using the hMSC Adipogenic BulletKit®, hMSC Osteogenic BulletKit®, and hMSC Chondrogenic BulletKit® (Lonza), respectively, following the manufacturer's instructions.
# To confirm adipogenesis, cells that had been induced for 25 days were washed with PBS, fixed with 10% (v/v) formalin for 30 min, then washed with water. Cells were incubated with 60% (v/v) isopropanol for 5 min and stained for intracellular lipid droplets with 1.8 mg/mL Oil Red O in isopropanol for 20 min. Excess stain was removed with 5 washes of water.
# [2] = test system: MSCs; assay: Cell migration via haptotaxis; type: cell-based, Human; conditions: 5 days post-seeding
# Description: Polydimethylsiloxane (PDMS) was casted into 3D printed molds to create a circular shape with three rectangular cutouts, in which the middle rectangle was equidistant from the flanking rectangles. The PDMS stencil was placed inside a well plate and pressed tightly against the well surface to create watertight seal. The top and bottom rectangular chambers were filled with tropoelastin solution (20 μg/mL) or PBS, respectively, and air dried overnight. MSCs (1.2×10^6 cells/cm^2) were seeded into the middle chamber and allowed to attach for at least 2 hrs. The PDMS stencil was removed, and the culture well was covered with normal media. For up to 5 days, cells were stained daily with NucBlue™ Live ReadyProbes™ Reagent (Life Technologies) for 15 min, washed once with PBS, covered with normal media, and imaged under fluorescence at 360/460 nm using a Nikon Ti-E Live Cell Microscope. Cell migration into regions defined by tropoelastin or PBS coating was quantified via relative fluorescent areas using ImageJ software.
# [3] = target: αv integrins (all αv subunit integrins) on human MSCs (human, UniProt P06756 31-1048); assay: cell-based or functional assay
# αv integrins (all αv subunit integrins) on human MSCs, sequence (P06756 31-1048, form in doubt): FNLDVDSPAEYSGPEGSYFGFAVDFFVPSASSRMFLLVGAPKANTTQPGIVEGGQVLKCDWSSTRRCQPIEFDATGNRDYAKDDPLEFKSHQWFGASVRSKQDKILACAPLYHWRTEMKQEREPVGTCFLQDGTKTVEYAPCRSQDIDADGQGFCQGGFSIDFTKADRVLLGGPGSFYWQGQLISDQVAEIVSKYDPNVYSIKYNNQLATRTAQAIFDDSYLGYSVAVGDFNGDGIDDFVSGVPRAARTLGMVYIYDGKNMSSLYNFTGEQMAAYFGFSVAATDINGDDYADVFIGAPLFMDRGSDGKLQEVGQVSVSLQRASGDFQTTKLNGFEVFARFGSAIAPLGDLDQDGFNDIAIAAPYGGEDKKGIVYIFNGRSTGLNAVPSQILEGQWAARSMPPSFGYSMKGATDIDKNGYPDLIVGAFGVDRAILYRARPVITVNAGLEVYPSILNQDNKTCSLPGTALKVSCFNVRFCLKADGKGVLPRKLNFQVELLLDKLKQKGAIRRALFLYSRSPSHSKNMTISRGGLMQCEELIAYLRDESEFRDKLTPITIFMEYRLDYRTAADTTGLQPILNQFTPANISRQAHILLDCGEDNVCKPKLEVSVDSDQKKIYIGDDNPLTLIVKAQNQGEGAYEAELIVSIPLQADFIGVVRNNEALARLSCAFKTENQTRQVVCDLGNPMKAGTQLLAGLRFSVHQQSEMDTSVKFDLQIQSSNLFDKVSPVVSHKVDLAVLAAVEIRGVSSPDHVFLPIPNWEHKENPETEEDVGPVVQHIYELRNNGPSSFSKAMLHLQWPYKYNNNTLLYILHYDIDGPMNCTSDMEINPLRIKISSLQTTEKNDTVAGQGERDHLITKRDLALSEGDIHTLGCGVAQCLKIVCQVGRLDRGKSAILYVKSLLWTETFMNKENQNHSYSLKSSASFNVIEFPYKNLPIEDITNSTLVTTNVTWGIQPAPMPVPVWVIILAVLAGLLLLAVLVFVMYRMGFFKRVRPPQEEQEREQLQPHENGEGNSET
# [4] = test system: MSCs; assay: Flow cytometry of MSC surface marker expression; type: cell-based, Human
# Description: MSCs cultured for 5 or 7 days in various media formulations and on bare or protein-coated tissue culture wells were trypsinised and pelleted. The cell pellets were washed with 0.22 μm filtered FACS buffer (5% v/v FBS in PBS) and re-centrifuged at 270 g for 5 min. The cells were resuspended in FACS buffer to a concentration of 100,000 cells in 100 μL total volume, and probed for MSC marker expression using the Human Mesenchymal Stem Cell Verification Flow Kit (R&D Systems®). Isotype and unstained control samples were prepared using MSCs cultured in standard growth media on tissue culture plastic. Cells were analyzed using a BD™ Biosciences LSR II Flow Cytometer System. Singlet cells were determined by their forward scatter-to-side scatter and scatter height-to-width ratios, while viable cells were identified by exclusion of 1:20 propidium iodide. Only singlet, viable cells were analyzed for marker expression.
# [5] = test system: MSCs; assay: MSC chondrogenic differentiation (glycosaminoglycans, Alcian Blue); type: cell-based, Human; conditions: for decreased MSC chondrogenesis: tropoelastin addition during differentiation
# Description: as §1
# To confirm chondrogenesis, cell pellets that had been induced for 14 days were washed with PBS, embedded in 1.5% (w/v) agar containing 0.85% (w/v) NaCl, and fixed with 10% (v/v) formalin overnight. The samples were dehydrated in 70% (v/v) ethanol for 1 day, then paraffin-embedded, sectioned, mounted onto slides, stained with Alcian Blue (pH 2.5) for 1 hour and counterstained with Nuclear Fast Red. Samples were imaged with an Olympus VS120 Slide Scanner.
# [6] = tropoelastin addition during MSC expansion
# [7] = tropoelastin-coated surfaces, all media formulations, 5 days post-seeding
molecule,measurement,setting,value
B1,intracellular lipid formation,[1]; 20 μg/ml TE during both expansion and induction stages,increase in intracellular lipid formation
same,intracellular lipid formation compared to culture lacking TE,[1]; induced in the presence of TE,increase in intracellular lipid formation
same,increased adipogenesis,[1]; [6],33%
same,increased adipogenesis,[1]; tropoelastin addition during differentiation,19%
same,promoted adipogenesis,[1]; tropoelastin during both expansion and differentiation stages,69-85%
same,more cells migrated to the tropoelastin-coated region compared to the control,[2],45±8%
same,focal adhesions per cell (vinculin staining) of MSCs on tropoelastin compared to those on BSA,[3],1.5 fold
same,MSC marker expression profile,[4]; 20 μg/mL soluble in media,"displayed characteristic CD90+, CD105+, CD73+ and lineage negative expression profiles"
same,MSC phenotype (marker expression),"[4]; substrate-bound, replacing one or both growth factors, full or reduced serum media",fully retained
same,"cells expressing positive MSC markers CD90, CD105 and CD73",[4]; [7],more than 95%
same,"cells lacking hematopoietic markers CD34, CD45, CD11b, CD79a and HLA-DR",[4]; [7],more than 98%
same,effect on chondrogenic differentiation,[5]; TE added during the induction stage,inhibited chondrogenic differentiation
same,pro-chondrogenic effects versus timing of exposure during expansion,"[5]; TE days 2-5, 3-6 or 4-7 of 7-day proliferation period",observed only when tropoelastin was present in the early stages of expansion
same,concentration during induction stage that significantly inhibited chondrogenic differentiation,[5]; TE present during induction,≥ 2 µg/mL
same,glycosaminoglycan production,"[5]; expanded in 20 μg/ml TE, induced in the absence of TE",highest extent of glycosaminoglycan production
same,glycosaminoglycan levels compared to cells expanded without TE,"[5]; expanded in presence of TE, TE not present during differentiation",increased glycosaminoglycan levels
same,increased chondrogenesis compared to cells exposed from days 4-7,[5]; exposed days 2-5 of expansion period,71%
same,improved chondrogenesis,[5]; [6],134%
same,decreased MSC chondrogenesis,[5]; cells expanded with tropoelastin,80%
same,decreased MSC chondrogenesis,[5]; cells expanded without tropoelastin,63%
